Data: patent publication US20200308281A1 (KITE PHARMA, published 2020)

Target: T1, alpha chain of the constant region of the murine T cell receptor (TCR) (murine, UniProt P01849 1-136)
T1 construct: Endogenous protein in mouse spleen tissue; The variable parts and the beta chains are those of the tissue's T cells and are not defined; also called mouse spleen TCR
T1 TCR alpha (looked up): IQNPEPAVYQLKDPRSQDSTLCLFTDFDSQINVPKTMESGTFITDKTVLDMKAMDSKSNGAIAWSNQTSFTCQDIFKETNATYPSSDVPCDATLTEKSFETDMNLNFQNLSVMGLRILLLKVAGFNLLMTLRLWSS
Assay: immunohistochemistry on FFPE section of mouse spleen
Experimental: The candidate antibodies were screened for their utility in immunohistochemistry. Specimens were sectioned at 4 micron thickness, mounted onto positive-charged glass slides, dried, baked, deparaffinized, and rehydrated. Following rehydration, tissue sections were incubated in Envision Peroxidase (Dako) for 5 minutes to quench endogenous peroxidase. Sections underwent heat-induced epitope retrieval using high-pH buffer for 40 minutes in a water bath set to 95° C. followed by a rinse in neutral buffer. Slides were incubated with antibody or negative reagent control diluted in diluent for 30 minutes. Slides were then rinsed twice in buffer for 5 minutes each followed by detection using the Envision+Rabbit HRP Detection Kit (Dako) for 30 minutes. Slides were rinsed twice with buffer for 5 minutes each followed by incubation with DAB (Dako) for 5 minutes. Slides were rinsed with water, counterstained with hematoxylin, blued in ammonia water, dehydrated through graded alcohols, cleared in xylene, and coverslipped. As shown in FIGS. 5A-E, E7 TCR-transduced, Peripheral blood mononuclear cells (PBMCs) transduced with the MAGE A3/A6 TCR, and FFPE section of mouse spleen stain with the exemplary mAb clone 39 (KIP-8) antibody described herein. […] Normal mouse spleen sections stain with KIP-8 further indicating its specificity for the murine alpha constant sequence.

B1: KIP-8 antibody (mAb clone 39; Clone 39-4) (antibody, V domains shown)
VH: QEQLVESGGGLVQPEGSLTLTCTASGFDLGNNWIHWVRHAPGKGLEWIACVSGSSGNIYYATWAKGRFTMSKASSTTVTLRMTSLTAADTATYFCARGWNLWGPGTLVTVSS
VL: AQVLTQTPASVSAAVGGTVTINCQASQSVYSSNLLTWYQKKPGQPPKLLIYEASKLPSGIPSRFSGSGSGTQFTLTISDVQCADAATYYCLGIYDCVLADCQAFGGGTEVVVKG
notes: Rabbit monoclonal antibody; also called clone 39 (KIP-8); Clone 39-4 vh1
- binding result: binds
